We go through four molecules from patent publication US20220267444A1 (CTTQ AKESO SHANGHAI BIOMED TECH, published 2022).

One assay concerns the target T1, Fc receptor FcγRIIa_R131 (UniProt P12318 34-218, limits assumed).
T1 sequence (looked up): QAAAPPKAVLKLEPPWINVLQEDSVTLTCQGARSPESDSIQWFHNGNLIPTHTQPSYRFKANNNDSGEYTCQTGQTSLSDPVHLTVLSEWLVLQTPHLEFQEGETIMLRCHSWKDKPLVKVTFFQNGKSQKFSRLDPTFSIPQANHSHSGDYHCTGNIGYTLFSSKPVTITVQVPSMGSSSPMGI
Description: BLI (Fortebio Octet); FcγRIIa_R131 on NTA sensor, antibody 12.5-200 nM; 1:1 fit. The procedure: (§1) 5 μg/mL FcγRIIa_R131 was immobilized on the NTA sensor at an immobilization height of about 1.0 nm. The sensor was equilibrated in a buffer of 0.02% Tween-20, 0.02% casein and 0.1% BSA in PBS, pH 7.4 for 300 s of blocking, and the binding of the immobilized FcγRIIa_R131 on the sensor to the antibodies at concentrations of 12.5-200 nM (serial two-fold dilution) was determined for 60 s. The antibody was dissociated in the buffer for 60 s. The sensor was refreshed in 10 mM glycine pH 1.7 and […] nickel sulfate. The temperature was 30° C. and the frequency was 0.6 Hz. The data were analyzed by 1:1 model fitting to obtain affinity constants.

Assay [1] deals with T2, Serum complement C1q (UniProt P02745 23-245; P02746 28-253; P02747 29-245). Description: BLI (Fortebio Octet), antibody immobilised on FAB2G sensor, C1q in solution at 1.25-20 nM. On the procedure:
(§2) 50 μg/mL antibody was immobilized on the FAB2G sensor at an immobilization height of about 2.0 nm. The sensor was equilibrated in a buffer for 60 s for blocking, and the binding of the immobilized antibody on the sensor to the antigen C1q at concentrations of 1.25-20 nM (serial two-fold dilution) was determined for 60 s. The antigen and antibody were dissociated in the buffer for 60 s. The sensor was refreshed 4 times in 10 mM glycine pH 1.7, each for 5 s. The shaking speed of the sample plate was 1000 rpm, the temperature was 30° C. and the frequency was 0.6 Hz. The data were analyzed by 1:1 model fitting to obtain affinity constants. The data acquisition software was Fortebio Data Acquisition 7.0, and the data analysis software was Fortebio Data Analysis 7.0.

Assay [2] concerns the target T3, Fc receptor FcγRI (UniProt P12314 16-288).
T3 construct: also called CD64
Description: BLI (Fortebio Octet), FcγRI immobilised on HIS1K sensor, antibody in solution at 3.12-50 nM. The procedure:
(§3) The Fc receptor FcγRI, also known as CD64, can bind to the Fc fragment of IgG antibodies and is involved in antibody-dependent cell-mediated cytotoxicity (ADCC). The binding capacity of a therapeutic monoclonal antibody to Fc receptors will influence the safety and efficacy of the antibody. […] A 1 μg/mL FcγRI solution (from Sinobio) was added to the HIS1K sensor to immobilize the FcγRI on the sensor surface for 50 s. The association and dissociation constants of the antibodies to FcγRI were both determined in the buffer with the antibody concentrations being 3.12-50 nM (serial two-fold dilution). The sensor with immobilized antigen was equilibrated in the buffer for 60 s, and then the binding of the immobilized FcγRI on the sensor to the antibodies was determined for 120 s; the dissociation of FcγRI from the antibodies was determined in 120 s. The temperature was 30° C. and the frequency was 0.3 Hz. The data were fitted and analyzed with a 1:1 model to obtain the affinity constants to FcγRI for the antibodies.

Assay [3] addresses T4, Fc receptor FcγRIIa_H131 (UniProt P12318 34-218, limits assumed).
T4 sequence (looked up): T1 sequence (looked up) with R134H
Description: BLI (Fortebio Octet), FcγRIIa_H131 immobilised on NTA sensor, antibody in solution at 12.5-200 nM. On the procedure:
as §1, with “FcγRIIa_H131” for “FcγRIIa_R131”

Assay [4] concerns the target T5, Fc receptor FcγRIIb (human, UniProt P31994 43-217).
T5 construct: also called CD32b; hFcγRIIb-his; not shown: his tag named in 'hFcγRIIb-his'
T5 sequence (looked up): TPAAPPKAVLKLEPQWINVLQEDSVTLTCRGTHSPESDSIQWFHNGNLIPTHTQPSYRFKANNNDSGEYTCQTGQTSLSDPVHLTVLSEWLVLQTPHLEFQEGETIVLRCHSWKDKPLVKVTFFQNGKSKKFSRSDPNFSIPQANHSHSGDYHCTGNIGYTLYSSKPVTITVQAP
Description: BLI (Fortebio Octet), hFcγRIIb-his immobilised on NTA sensor, antibody in solution at 12.5-200 nM. The procedure: as §1, with “hFcγRIIb-his” for “FcγRIIa_R131”

In assay [5] the target is T6, Fc receptor FcγRIIIa_V158 (UniProt P08637 17-208). Briefly: BLI (Fortebio Octet), FcγRIIIa_V158 immobilised on HIS1K sensor, antibody in solution at 31.25-500 nM. The procedure: (§4) 5 μg/mL FcγRIIIa_V158 was immobilized on the HIS1K sensor for 120 s. The sensor was equilibrated in a buffer for 60 s, and the binding of the immobilized FcγRIIIa_V158 on the sensor to the antibodies at concentrations of 31.25-500 nM (serial two-fold dilution) was determined for 60 s. The antibody was dissociated in the buffer for 60 s. The sensor was refreshed 4 times in 10 mM glycine pH 1.5, each for 5 s. The temperature was 30° C. and the frequency was 0.3 Hz. The data were analyzed by 1:1 model fitting to obtain affinity constants.

Assay [6] addresses T7, Fc receptor FcγRIIIa_F158 (UniProt P08637 17-208). Description: BLI (Fortebio Octet), FcγRIIIa_F158 immobilised on HIS1K sensor, antibody in solution at 31.25-500 nM. The procedure:
(§5) 5 μg/mL FcγRIIIa_F158 was immobilized on the HIS1K sensor for 120 s. The sensor was equilibrated in a buffer for 60 s, and the binding of the immobilized FcγRIIIa_F158 on the sensor to the antibodies at concentrations of 31.25-500 nM (serial two-fold dilution) was determined for 60 s. The antibody was dissociated in the buffer for 60 s. The sensor was refreshed 4 times in 10 mM glycine pH 1.5, each for 5 s. The temperature was 30° C. and the frequency was 0.3 Hz. The data were analyzed by 1:1 model fitting to obtain affinity constants.

For assay [7], the target named is T3, Fc receptor FcγRI. Description: BLI (Fortebio Octet); FcγRI on HIS1K sensor, antibody 3.12-50 nM; 1:1 fit. The procedure: as §3
The target in assay [8] is T4, Fc receptor FcγRIIa_H131. Briefly: BLI (Fortebio Octet); FcγRIIa_H131 on NTA sensor, antibody 12.5-200 nM; 1:1 fit. On the procedure:
as §1, with “FcγRIIa_H131” for “FcγRIIa_R131”

In assay [9] the target is T5, Fc receptor FcγRIIb. Briefly: BLI (Fortebio Octet); hFcγRIIb-his on NTA sensor, antibody 12.5-200 nM; 1:1 fit. On the procedure:
as §1, with “hFcγRIIb-his” for “FcγRIIa_R131”

Assay [10] has as its target T2, Serum complement C1q. Description: BLI (Fortebio Octet); antibody on FAB2G sensor, C1q 1.25-20 nM; 1:1 fit. The procedure: as §2
For assay [11], the target named is T6, Fc receptor FcγRIIIa_V158. Description: BLI (Fortebio Octet); FcγRIIIa_V158 on HIS1K sensor, antibody 31.25-500 nM; 1:1 fit. On the procedure:
as §4

For assay [12], the target named is T7, Fc receptor FcγRIIIa_F158. Description: BLI (Fortebio Octet); FcγRIIIa_F158 on HIS1K sensor, antibody 31.25-500 nM; 1:1 fit. The procedure:
as §5

Positions count from the first letter of the chain named. In names and notes the source's numbering stands.

T7 sequence (P08637 17-208 limits assumed): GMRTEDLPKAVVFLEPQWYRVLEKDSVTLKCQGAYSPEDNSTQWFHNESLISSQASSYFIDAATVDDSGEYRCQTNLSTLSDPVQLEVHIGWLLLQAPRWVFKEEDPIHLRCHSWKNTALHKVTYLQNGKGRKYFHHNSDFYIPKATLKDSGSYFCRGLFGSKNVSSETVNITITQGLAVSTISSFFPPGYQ
T2 sequence (P02745 23-245 limits assumed, chain 1 of 3): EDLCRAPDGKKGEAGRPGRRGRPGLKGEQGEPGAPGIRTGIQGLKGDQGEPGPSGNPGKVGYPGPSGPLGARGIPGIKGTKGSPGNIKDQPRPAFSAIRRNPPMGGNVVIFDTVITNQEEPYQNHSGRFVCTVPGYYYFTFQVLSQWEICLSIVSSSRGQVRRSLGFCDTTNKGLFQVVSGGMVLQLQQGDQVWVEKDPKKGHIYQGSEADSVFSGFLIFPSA
T2 sequence (P02746 28-253 limits assumed, chain 2 of 3): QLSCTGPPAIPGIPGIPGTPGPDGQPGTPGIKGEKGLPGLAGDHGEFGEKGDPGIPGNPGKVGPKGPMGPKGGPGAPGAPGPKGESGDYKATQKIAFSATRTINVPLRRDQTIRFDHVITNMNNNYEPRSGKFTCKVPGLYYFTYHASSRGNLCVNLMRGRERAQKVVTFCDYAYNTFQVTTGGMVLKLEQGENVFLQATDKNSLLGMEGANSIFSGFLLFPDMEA
T2 sequence (P02747 29-245 limits assumed, chain 3 of 3): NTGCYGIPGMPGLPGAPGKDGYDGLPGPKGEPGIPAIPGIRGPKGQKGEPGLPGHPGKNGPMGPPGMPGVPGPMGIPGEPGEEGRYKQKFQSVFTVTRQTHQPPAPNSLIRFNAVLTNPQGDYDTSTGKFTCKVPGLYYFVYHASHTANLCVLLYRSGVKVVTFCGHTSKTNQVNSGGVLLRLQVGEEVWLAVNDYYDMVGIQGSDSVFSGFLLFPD
T6 sequence (P08637 17-208 F176V limits assumed): as the sequence (P08637 17-208 limits assumed) above, with F160V counted along it
T3 sequence (P12314 16-288 limits assumed): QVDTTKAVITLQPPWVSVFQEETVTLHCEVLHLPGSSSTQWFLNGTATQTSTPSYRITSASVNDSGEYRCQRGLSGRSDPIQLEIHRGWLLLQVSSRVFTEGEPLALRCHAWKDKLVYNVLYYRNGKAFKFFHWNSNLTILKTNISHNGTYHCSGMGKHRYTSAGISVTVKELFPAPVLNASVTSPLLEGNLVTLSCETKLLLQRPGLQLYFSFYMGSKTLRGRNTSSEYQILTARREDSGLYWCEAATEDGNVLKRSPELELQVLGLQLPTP

B1: 14C12H1L1(hG1TM) (antibody, human IgG1, kappa)
heavy: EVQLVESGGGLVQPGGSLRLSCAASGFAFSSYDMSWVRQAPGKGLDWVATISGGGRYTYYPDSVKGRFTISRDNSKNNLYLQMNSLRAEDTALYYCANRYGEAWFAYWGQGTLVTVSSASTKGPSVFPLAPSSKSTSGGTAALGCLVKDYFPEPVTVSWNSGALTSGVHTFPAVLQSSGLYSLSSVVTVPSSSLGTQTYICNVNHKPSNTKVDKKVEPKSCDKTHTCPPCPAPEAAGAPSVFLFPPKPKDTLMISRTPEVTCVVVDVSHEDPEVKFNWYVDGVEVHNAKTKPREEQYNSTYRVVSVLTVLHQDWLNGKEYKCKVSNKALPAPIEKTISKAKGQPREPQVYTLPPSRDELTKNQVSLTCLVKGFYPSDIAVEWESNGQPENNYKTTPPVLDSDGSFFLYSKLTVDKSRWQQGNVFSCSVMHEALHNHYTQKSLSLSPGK
light: DIQMTQSPSSMSASVGDRVTFTCRASQDINTYLSWFQQKPGKSPKTLIYRANRLVSGVPSRFSGSGSGQDYTLTISSLQPEDMATYYCLQYDEFPLTFGAGTKLELKRTVAAPSVFIFPPSDEQLKSGTASVVCLLNNFYPREAKVQWKVDNALQSGNSQESVTEQDSKDSTYSLSSTLTLSKADYEKHKVYACEVTHQGLSSPVTKSFNRGEC
notes: Humanized anti-PD-1 IgG1 mutant of 14C12H1L1(hG1WT) with L234A, L235A and G237A (EU numbering) in the heavy chain
Turning to B1, in the assay with Fc receptor FcγRIIa_R131, the Kd amounted to 232 nM. In the assay with Fc receptor FcγRIIa_R131, this molecule showed an off-rate constant (koff) of 0.0938 s⁻¹. The molecule also displayed a kon with Fc receptor FcγRIIa_R131 of 404000 M⁻¹ s⁻¹. Also, the binding result is on record as “no binding (tested: 20 nM)” with Serum complement C1q [1]; “no binding (tested: 50 nM)” with Fc receptor FcγRI [2]; “no binding (tested: 200 nM)” with Fc receptor FcγRIIa_H131 [3]; “no binding (tested: 200 nM)” in the assay with Fc receptor FcγRIIb [4]; “no binding (tested: 500 nM)” in [5]; “no binding (tested: 500 nM)” in assay [6].

B2: 14C12H1L1(hG4) (antibody, human IgG4 S228P, kappa)
heavy: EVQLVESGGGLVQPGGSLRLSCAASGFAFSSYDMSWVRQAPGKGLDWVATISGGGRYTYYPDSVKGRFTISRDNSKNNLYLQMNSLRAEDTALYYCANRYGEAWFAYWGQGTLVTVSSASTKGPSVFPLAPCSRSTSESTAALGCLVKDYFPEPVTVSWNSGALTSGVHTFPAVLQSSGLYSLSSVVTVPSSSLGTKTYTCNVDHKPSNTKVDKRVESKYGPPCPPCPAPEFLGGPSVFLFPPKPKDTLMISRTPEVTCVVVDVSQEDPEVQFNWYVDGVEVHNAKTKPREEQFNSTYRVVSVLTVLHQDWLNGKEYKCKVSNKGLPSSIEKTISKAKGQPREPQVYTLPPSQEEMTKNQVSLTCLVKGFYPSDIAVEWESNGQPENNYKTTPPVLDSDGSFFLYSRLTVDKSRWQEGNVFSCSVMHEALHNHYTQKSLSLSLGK
light: B1 light
notes: Humanized anti-PD-1 antibody with the variable regions of 14C12H1L1(hG1WT), Ig gamma-4 chain C region (P01861.1) and Ig kappa chain C region (P01834)
On to B2, for which the dissociation constant (Kd) with Fc receptor FcγRI [7] turned out to be 5.8 nM; with Fc receptor FcγRIIa_H131 [8] it was 50.7 nM; in the assay with Fc receptor FcγRIIa_R131 it was 31.3 nM; in the assay with Fc receptor FcγRIIb [9] it was 56.2 nM. Besides, the koff was found to be 0.00369 s⁻¹ in the assay with Fc receptor FcγRI [7], 0.013 s⁻¹ with Fc receptor FcγRIIa_H131 [8], 0.011 s⁻¹ in the assay with Fc receptor FcγRIIa_R131 and 0.0162 s⁻¹ with Fc receptor FcγRIIb [9]. In addition, the association rate constant (kon) with Fc receptor FcγRI [7] is 637000 M⁻¹ s⁻¹; with Fc receptor FcγRIIa_H131 [8], 257000 M⁻¹ s⁻¹; in the assay with Fc receptor FcγRIIa_R131, 350000 M⁻¹ s⁻¹; with Fc receptor FcγRIIb [9], 288000 M⁻¹ s⁻¹. The binding result is listed as “no binding (tested: 20 nM)” with Serum complement C1q [1] and “no binding (tested: 500 nM)” in [6].

B3: 14C12H1L1(hG1WT) (antibody, human IgG1, kappa)
heavy: not shown
light: B1 light
notes: Humanized anti-PD-1 antibody, wild-type human IgG1 constant region
Take B3: the equilibrium dissociation constant (Kd) with Serum complement C1q [10] came out at 1.35 nM; with Fc receptor FcγRI [7] it was 2.52 nM; with Fc receptor FcγRIIa_H131 [8], 57.4 nM; in the assay with Fc receptor FcγRIIa_R131, 34.6 nM; in the assay with Fc receptor FcγRIIb [9], 61.3 nM; in assay [11] it was 65.4 nM. The molecule also returned a dissociation constant (Kd) in [12] of 102 nM. For the same molecule, the koff with Serum complement C1q [10] amounted to 0.00654 s⁻¹; with Fc receptor FcγRI [7], 0.00175 s⁻¹; with Fc receptor FcγRIIa_H131 [8], 0.0267 s⁻¹; with Fc receptor FcγRIIa_R131 it was 0.0228 s⁻¹; with Fc receptor FcγRIIb [9], 0.0195 s⁻¹; in assay [11], 0.0171 s⁻¹. The same molecule showed a dissociation rate constant (koff) in assay [12] of 0.0256 s⁻¹. Also, the on-rate constant (kon) with Serum complement C1q [10] stood at 4.83e+06 M⁻¹ s⁻¹; with Fc receptor FcγRI [7], 694000 M⁻¹ s⁻¹; with Fc receptor FcγRIIa_H131 [8], 465000 M⁻¹ s⁻¹; in the assay with Fc receptor FcγRIIa_R131 it was 660000 M⁻¹ s⁻¹; with Fc receptor FcγRIIb [9] it was 318000 M⁻¹ s⁻¹; in assay [11] it was 261000 M⁻¹ s⁻¹. This molecule came in with an on-rate constant (kon) in assay [12] of 252000 M⁻¹ s⁻¹.

B4: 5C10H2L2-IgG1mt (antibody)
chain 1: not shown
chain 2: EIVLTQSPDTLSVTPKEKVTLTCRASQSIGTNIHWFQQKPGQSPKLLIKYASESISGVPSRFSGSGSGTDFTLTINSVEAEDAATYYCQQSNSWPYTFGQGTKLEIKRTVAAPSVFIFPPSDEQLKSGTASVVCLLNNFYPREAKVQWKVDNALQSGNSQESVTEQDSKDSTYSLSSTLTLSKADYEKHKVYACEVTHQGLSSPVTKSFNRGEC
As to B4, in the assay with Serum complement C1q [10], the Kd stood at 4.43 nM, the off-rate (koff) turned out to be 0.0105 s⁻¹ and the kon came out at 2.38e+06 M⁻¹ s⁻¹.
